The text below walks through data of the supplement of paper PMC5998384.

Series [1] relates to HeLa Kyoto. The series can be described thus: solubility in G1/S (NP-40 vs SDS abundance) (log2 ratio); higher = more soluble. The settings on record: cell cycle stage: G1/S.
Series [2] deals with HeLa Kyoto. In words: solubility change mitosis vs G1/S (difference of NP-40 vs SDS log2 ratios) (log2 ratio difference); higher = more soluble in mitosis.
Series [3] has as its system HeLa Kyoto. The series can be described thus: thermal stability score vs G1/S (z-score of summed log2 fold changes over temperatures); higher = more thermally stable than in G1/S.
Setting [4] is: cell cycle stage: early G1 (4.5 h after nocodazole release).
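Throughout, for solubility change mitosis vs G1/S (difference of NP-40 vs SDS log2 ratios): synchronized HeLa Kyoto cells (double thymidine block for G1/S, nocodazole release for mitosis), protein amounts in NP-40 versus SDS lysates quantified by mass spectrometry, three biological replicates.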
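Throughout, for solubility in G1/S (NP-40 vs SDS abundance): HeLa Kyoto cells arrested at G1/S by double thymidine block, proteins quantified by TMT10plex mass spectrometry in mild NP-40 versus SDS extracts, three biological replicates.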
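Throughout, for thermal stability score vs G1/S (z-score of summed log2 fold changes over temperatures): synchronized HeLa Kyoto cells, proteins quantified by TMT10plex mass spectrometry, three biological replicates, mitosis taken 0.5 h after nocodazole release, G1/S directly after double thymidine block.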

As for “MERGKMAEAESLETAAEHERILREIESTDTACIGPTLRSVYDGEEHGRFMEKLETRIRNHDREIEKMCNFHYQGFVDSITELLKVRGEAQKLKNQVTDTNRKLQHEGKELVIAMEELKQCRLQQRNISATVDKLMLCLPVLEMYSKLRDQMKTKRHYPALKTLEHLEHTYLPQVSHYRFCKVMVDNIPKLREEIKDVSMSDLKDFLESIRKHSDKIGETAMKQAQQQRNLDNIVLQQPRIGSKRKSKKDAYIIFDTEIESTSPKSEQDSGILDVEDEEDDEEVPGAQDLVDFSPVYRCLHIYSVLGARETFENYYRKQRRKQARLVLQPPSNMHETLDGYRKYFNQIVGFFVVEDHILHTTQGLVNRAYIDELWEMALSKTIAALRTHSSYCSDPNLVLDLKNLIVLFADTLQVYGFPVNQLFDMLLEIRDQYSETLLKKWAGIFRNILDSDNYSPIPVTSEEMYKKVVGQFPFQDIELEKQPFPKKFPFSEFVPKVYNQIKEFIYACLKFSEDLHLSSTEVDDMIRKSTNLLLTRTLSNSLQNVIKRKNIGLTELVQIIINTTHLEKSCKYLEEFITNITNVLPETVHTTKLYGTTTFKDARHAAEEEIYTNLNQKIDQFLQLADYDWMTGDLGNKASDYLVDLIAFLRSTFAVFTHLPGKVAQTACMSACKHLATSLMQLLLEAEVRQLTLGALQQFNLDVRECEQFARSGPVPGFQEDTLQLAFIDLRQLLDLFIQWDWSTYLADYGQPNCKYLRVNPVTALTLLEKMKDTSRKNNMFAQFRKNERDKQKLIDTVAKQLRGLISSHHS [EXOC6B]”, in the series on HeLa Kyoto [1], the “solubility in G1/S (log2)” value is -0.17. In the series on HeLa Kyoto [2], the “solubility change mitosis (log2)” value was -0.0208. In addition, the thermal stability score in the series with HeLa Kyoto [3] (setting [4]) came out at 0.0917; with HeLa Kyoto [3] (cell cycle stage: mitosis), 0.56.

As for “MERRSRRKSRRNGRSTAGKAAATQPAKSPGAQLWLFPSAAGLHRALLRRVEVTRQLCCSPGRLAVLERGGAGVQVHQLLAGSGGARTPKCIKLGKNMKIHSVDQGAEHMLILSSDGKPFEYDNYSMKHLRFESILQEKKIIQITCGDYHSLALSKGGELFAWGQNLHGQLGVGRKFPSTTTPQIVEHLAGVPLAQISAGEAHSMALSMSGNIYSWGKNECGQLGLGHTESKDDPSLIEGLDNQKVEFVACGGSHSALLTQDGLLFTFGAGKHGQLGHNSTQNELRPCLVAELVGYRVTQIACGRWHTLAYVSDLGKVFSFGSGKDGQLGNGGTRDQLMPLPVKVSSSEELKLESHTSEKELIMIAGGNQSILLWIKKENSYVNLKRTIPTLNEGTVKRWIADVETKRWQSTKREIQEIFSSPACLTGSFLRKRRTTEMMPVYLDLNKARNIFKELTQKDWITNMITTCLKDNLLKRLPFHSPPQEALEIFFLLPECPMMHISNNWESLVVPFAKVVCKMSDQSSLVLEEYWATLQESTFSKLVQMFKTAVICQLDYWDESAEENGNVQALLEMLKKLHRVNQVKCQLPESIFQVDELLHRLNFFVEVCRRYLWKMTVDASENVQCCVIFSHFPFIFNNLSKIKLLHTDTLLKIESKKHKAYLRSAAIEEERESEFALRPTFDLTVRRNHLIEDVLNQLSQFENEDLRKELWVSFSGEIGYDLGGVKKEFFYCLFAEMIQPEYGMFMYPEGASCMWFPVKPKFEKKRYFFFGVLCGLSLFNCNVANLPFPLALFKKLLDQMPSLEDLKELSPDLGKNLQTLLDDEGDNFEEVFYIHFNVHWDRNDTNLIPNGSSITVNQTNKRDYVSKYINYIFNDSVKAVYEEFRRGFYKMCDEDIIKLFHPEELKDVIVGNTDYDWKTFEKNARYEPGYNSSHPTIVMFWKAFHKLTLEEKKKFLVFLTGTDRLQMKDLNNMKITFCCPESWNERDPIRALTCFSVLFLPKYSTMETVEEALQEAINNNRGFG [HERC5]”, in the series with HeLa Kyoto [1], the “solubility in G1/S (log2)” value was -1.44. Further, the “solubility change mitosis (log2)” value in the series with HeLa Kyoto [2] is 0.525. Besides, the thermal stability score is -0.386 with HeLa Kyoto [3] (setting [4]) and -1.53 in the series on HeLa Kyoto [3] (cell cycle stage: mitosis).

With “METRYNLKSPAVKRLMKEAAELKDPTDHYHAQPLEDNLFEWHFTVRGPPDSDFDGGVYHGRIVLPPEYPMKPPSIILLTANGRFEVGKKICLSISGHHPETWQPSWSIRTALLAIIGFMPTKGEGAIGSLDYTPEERRALAKKSQDFCCEGCGSAMKDVLLPLKSGSDSSQADQEAKELARQISFKAEVNSSGKTISESDLNHSFSLTDLQDDIPTTFQGATASTSYGLQNSSAASFHQPTQPVAKNTSMSPRQRRAQQQSQRRLSTSPDVIQGHQPRDNHTDHGGSAVLIVILTLALAALIFRRIYLANEYIFDFEL [UBE2J1]”, the “solubility in G1/S (log2)” value in the series with HeLa Kyoto [1] turned out to be 0.222. The “solubility change mitosis (log2)” value in the series on HeLa Kyoto [2] came out at 0.00691. Moreover, the results for the thermal stability score in the series on HeLa Kyoto [3] (setting [4]) and in the series on HeLa Kyoto [3] (cell cycle stage: mitosis) were -0.0441 and 1.77, respectively.

Regarding “MFSVLSYGRLVARAVLGGLSQTDPRAGGGGGGDYGLVTAGCGFGKDFRKGLLKKGACYGDDACFVARHRSADVLGVADGVGGWRDYGVDPSQFSGTLMRTCERLVKEGRFVPSNPIGILTTSYCELLQNKVPLLGSSTACIVVLDRTSHRLHTANLGDSGFLVVRGGEVVHRSDEQQHYFNTPFQLSIAPPEAEGVVLSDSPDAADSTSFDVQLGDIILTATDGLFDNMPDYMILQELKKLKNSNYESIQQTARSIAEQAHELAYDPNYMSPFAQFACDNGLNVRGGKPDDITVLLSIVAEYTD [PPTC7]”, the “solubility in G1/S (log2)” value in the series on HeLa Kyoto [1] was -0.0546. Also, in the series on HeLa Kyoto [2], the “solubility change mitosis (log2)” value is -0.0876. In addition, the thermal stability score was -1.55 in the series on HeLa Kyoto [3] (setting [4]) and -0.178 with HeLa Kyoto [3] (cell cycle stage: mitosis).

Regarding “MGGGDLNLKKSWHPQTLRNVEKVWKAEQKHEAERKKIEELQRELREERAREEMQRYAEDVGAVKKKEEKLDWMYQGPGGMVNRDEYLLGRPIDKYVFEKMEEKEAGCSSETGLLPGSIFAPSGANSLLDMASKIREDPLFIIRKKEEEKKREVLNNPVKMKKIKELLQMSLEKKEKKKKKEKKKKHKKHKHRSSSSDRSSSEDEHSAGRSQKKMANSSPVLSKVPGYGLQVRNSDRNQGLQGPLTAEQKRGHGMKNHSRSRSSSHSPPRHASKKSTREAGSRDRRSRSLGRRSRSPRPSKLHNSKVNRRETGQTRSPSPKKEVYQRRHAPGYTRKLSAEELERKRQEMMENAKWREEERLNILKRHAKDEEREQRLEKLDSRDGKFIHRMKLESASTSSLEDRVKRNIYSLQRTSVALEKNFMKR [CWC25]”, the “solubility in G1/S (log2)” value in the series on HeLa Kyoto [1] is -0.718. In addition, the “solubility change mitosis (log2)” value with HeLa Kyoto [2] came out at 0.463. The thermal stability score in the series on HeLa Kyoto [3] (setting [4]) was -0.522; in the series on HeLa Kyoto [3] (cell cycle stage: mitosis), -0.488.
